Earlier results on two substances are cited in article PMC3819593.

One data set concerns the target LLT1 (Homo sapiens) (UniProt Q9UHP7).
For another data set, the target named is AICL (Homo sapiens) (UniProt Q92478).
UniProt Q92478, sequence (Q92478 whole entry): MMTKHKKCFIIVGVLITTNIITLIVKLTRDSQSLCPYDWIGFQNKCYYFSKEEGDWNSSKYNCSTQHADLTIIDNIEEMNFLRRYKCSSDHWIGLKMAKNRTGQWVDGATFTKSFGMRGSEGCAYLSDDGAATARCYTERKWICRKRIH

UniProt Q9UHP7, sequence (Q9UHP7 whole entry): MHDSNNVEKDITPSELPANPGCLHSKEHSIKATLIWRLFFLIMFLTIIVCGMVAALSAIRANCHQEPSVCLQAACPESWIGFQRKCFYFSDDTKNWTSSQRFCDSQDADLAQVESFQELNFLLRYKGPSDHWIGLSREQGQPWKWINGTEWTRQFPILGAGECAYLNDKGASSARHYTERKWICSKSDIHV

With NKRP1A (from UniProt Q12918), the Kd with LLT1 (Homo sapiens) is 48 µM.
Regarding NKp80 (from UniProt Q9NZS2), in the data set with AICL (Homo sapiens), the Kd is 4 µM.

Broadly, the Kd is the concentration at which binding is half-saturated.
